The text below walks through data of patent US20200165345A1 (GlaxoSmithKline, published 2020).

Assay [1] deals with T1, human full-length TrkB receptor (human, UniProt Q16620 32-822). Kind of assay: cell-based or functional assay.
Assay [2] deals with T1, human full-length TrkB receptor. Kind of assay: cell-based or functional assay. This is another data set of the same source.
Assay [3] has the same target. Kind of assay: cell-based or functional assay. This is another data set of the same source.
For the next assay, the target named is T2, rat TrkB receptor (rat, UniProt Q63604 32-821).
T2 construct: whole, on cells; also called rodent TrkB
T2 sequence (Q63604 32-821): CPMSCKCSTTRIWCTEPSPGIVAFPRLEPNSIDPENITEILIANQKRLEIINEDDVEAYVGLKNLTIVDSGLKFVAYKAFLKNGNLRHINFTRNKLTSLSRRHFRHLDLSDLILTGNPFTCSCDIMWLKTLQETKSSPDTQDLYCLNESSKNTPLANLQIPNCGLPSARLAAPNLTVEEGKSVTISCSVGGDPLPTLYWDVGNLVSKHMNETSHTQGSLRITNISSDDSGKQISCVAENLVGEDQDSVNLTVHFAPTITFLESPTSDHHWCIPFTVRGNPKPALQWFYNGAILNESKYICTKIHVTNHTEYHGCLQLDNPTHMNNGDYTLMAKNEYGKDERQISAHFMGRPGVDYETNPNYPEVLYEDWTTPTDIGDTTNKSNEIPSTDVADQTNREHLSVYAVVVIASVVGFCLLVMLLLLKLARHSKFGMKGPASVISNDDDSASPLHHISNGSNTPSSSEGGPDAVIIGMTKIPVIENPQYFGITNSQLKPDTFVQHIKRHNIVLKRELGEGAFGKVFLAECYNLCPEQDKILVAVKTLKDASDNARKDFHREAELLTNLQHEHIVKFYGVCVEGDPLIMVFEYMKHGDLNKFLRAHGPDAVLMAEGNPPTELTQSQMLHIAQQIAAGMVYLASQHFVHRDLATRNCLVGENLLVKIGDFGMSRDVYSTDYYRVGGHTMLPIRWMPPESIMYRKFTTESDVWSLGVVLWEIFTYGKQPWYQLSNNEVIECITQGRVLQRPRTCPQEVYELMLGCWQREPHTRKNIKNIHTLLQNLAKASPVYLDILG
Kind of assay: method not detailed.

A further assay addresses T3, mouse TrkB receptor (mouse, UniProt P15209 32-821).
T3 construct: whole, on cells; also called murine TrkB; rodent TrkB
The experiment in a line: method not detailed.

T1 sequence (Q16620 32-822 limits assumed): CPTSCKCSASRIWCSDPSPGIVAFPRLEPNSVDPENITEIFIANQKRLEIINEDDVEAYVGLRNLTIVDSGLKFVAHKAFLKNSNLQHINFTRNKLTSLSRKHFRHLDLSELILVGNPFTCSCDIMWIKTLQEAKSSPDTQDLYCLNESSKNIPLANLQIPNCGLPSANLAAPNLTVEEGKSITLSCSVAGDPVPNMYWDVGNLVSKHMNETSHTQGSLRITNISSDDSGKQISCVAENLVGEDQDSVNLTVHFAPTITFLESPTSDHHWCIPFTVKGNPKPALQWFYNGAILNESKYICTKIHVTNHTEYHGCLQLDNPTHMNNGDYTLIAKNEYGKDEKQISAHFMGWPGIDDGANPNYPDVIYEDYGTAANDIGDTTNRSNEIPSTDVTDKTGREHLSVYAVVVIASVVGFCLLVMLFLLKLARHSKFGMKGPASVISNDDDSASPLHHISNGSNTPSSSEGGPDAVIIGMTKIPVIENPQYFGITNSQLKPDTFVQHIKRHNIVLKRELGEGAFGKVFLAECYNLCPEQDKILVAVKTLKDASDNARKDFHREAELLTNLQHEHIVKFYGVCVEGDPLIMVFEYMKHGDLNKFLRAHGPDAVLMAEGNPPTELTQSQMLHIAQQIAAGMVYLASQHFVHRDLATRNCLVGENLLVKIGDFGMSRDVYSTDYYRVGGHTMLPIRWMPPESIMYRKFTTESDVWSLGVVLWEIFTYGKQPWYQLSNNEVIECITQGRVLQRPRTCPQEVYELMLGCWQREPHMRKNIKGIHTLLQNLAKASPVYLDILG
T3 sequence (P15209 32-821): as the sequence (Q63604 32-821) above, with M3T, T9S, T10A, I32V, K63R, G84S, T153M, I185L, T394S, N770S counted along it

B1: 8E5 (antibody, mouse IgG1, kappa, V domains shown)
VH: EVQLVESGGDLVKPGGSLKLSCAASGFTFSTYGMSWVRQTPDKGLEWVATVSTGGTYTYYPDSVKGRFTISRDNAKNTLYLQMSSLKSEDTAMYYCARGGYSFAYWGQGTLVTVSA
VL: ENVLTQSPAIMSASPGEKVTMTCRASSSVSSSYLHWYQQKSGVSPKLWIYSTSNLASGVPARFSGSGSGTSYSLTISSVEAEDAATYYCQQYSGYPLTFGAGTKLELKR
Consider B1, for which, in assay [1], the “cell survival, PC12 cells expressing human TrkB, EC50” value is 0.09 nM and the “neurite outgrowth, PC12 cells expressing human TrkB, EC50” value stood at 1.58 nM. The “Potentiation of BDNF-induced agonism of TrkB (pTrkB, % of BDNF alone)” value (from here on “Potentiation … (pTrkB, % of BDNF alone)”) in assay [2] is about 120%.

B2: 1G11 (antibody, V domains shown)
VH: QVQLQQSGDDLVKPGASVKLSCKASGYTFTSYYINWIKQRPGQGLECIGRIAPGNTYYNEIFKGKAILTVDTSSSTAYIQLSSLSSEDSGVYFCARRGYEGALDYWGQGTSVTVSS
VL: DIVLTQSPATLSVTPGDSVSLSCRASQRISNNLHWYQQKSHESPRLLIKYVSQSISGIPSRFSGSGSGTDFTLSINSVETEDFGMYFCQQSNSWPLTFGAGTKLELKR
For the molecule B2, in assay [3], the “EC50 (read off the curve); pTrkB relative activity in the presence of 10 nM BDNF” value is about 10 nM. In addition, in assay [2], the “Activation of TrkB (pTrkB, Y515), EC50” value was 3.1 nM and the “Potentiation … (pTrkB, % of BDNF alone)” value was about 130%.

B3: Humanised 1G11 (antibody, human IgG1, kappa, V domains shown)
VH: QVQLVQSGAEVKKPGSSVKVSCKASGYTFTSYYINWVRQAPGQGLESMGRIAPGNTYYNEIFKGRVTITADKSTSTAYMELSSLRSEDTAVYYCARRGYEGALDYWGQGTLVTVSS
VL: EIVLTQSPATLSLSPGERATLSCRASQRISNNLHWYQQKPGQAPRLLIKYVSQSISGIPARFSGSGSGTDFTLTISSLEPEDFAVYYCQQSNSWPLTFGQGTKLEIKR
notes: Straight graft of 1G11 CDRs with serine at Kabat position 47 of the heavy chain (H7, Lo1); human IgG1 Fc with L235A and G237A (EU numbering), Fc-disabled; also called humanised 1G11 (H7, Lo1); copies: 2 + 2
B3: the “levels of phosphorylated TrkB in CHO-K1 cells, EC50” value in assay [1] was 0.65 nM. The binding result in the assay with rat TrkB receptor and with mouse TrkB receptor was “binds” each time.

B4: 3A3 (antibody, mouse IgG1, kappa, V domains shown)
VH: QVQLQQSGAELAKPGASVKMSCKASGYTFSSYWMHWVKQRPGQGLEWIGYINPSTGYTDYNQKFKDKATLTADKSSNTAYMQLSSLTSDDSAVYYCARSRAARYWGQGTTLTVSS
VL: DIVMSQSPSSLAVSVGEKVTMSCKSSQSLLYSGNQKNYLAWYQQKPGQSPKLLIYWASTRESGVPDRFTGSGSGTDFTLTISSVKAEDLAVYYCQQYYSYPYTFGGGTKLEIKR
In the case of B4, in assay [1], the “cell survival, PC12 cells expressing human TrkB, EC50” value is 0.006 nM. In assay [3], the “EC50 (read off the curve); pTrkB relative activity in the presence of 10 nM BDNF” value is about 0.7 nM. For the same molecule, the “Potentiation … (pTrkB, % of BDNF alone)” value in assay [2] was about 160%.
